We go through 13 molecules from patent publication US20240116985A1 (published 2024).

Sequences and labels used below:
T1: full-length beta-Catenin (Uniprot ID P35222) (Homo sapiens (Human), UniProt P35222 1-781)
T1 construct: The assay text says 'full-length'; also called bCat; B-Catenin
T1 sequence: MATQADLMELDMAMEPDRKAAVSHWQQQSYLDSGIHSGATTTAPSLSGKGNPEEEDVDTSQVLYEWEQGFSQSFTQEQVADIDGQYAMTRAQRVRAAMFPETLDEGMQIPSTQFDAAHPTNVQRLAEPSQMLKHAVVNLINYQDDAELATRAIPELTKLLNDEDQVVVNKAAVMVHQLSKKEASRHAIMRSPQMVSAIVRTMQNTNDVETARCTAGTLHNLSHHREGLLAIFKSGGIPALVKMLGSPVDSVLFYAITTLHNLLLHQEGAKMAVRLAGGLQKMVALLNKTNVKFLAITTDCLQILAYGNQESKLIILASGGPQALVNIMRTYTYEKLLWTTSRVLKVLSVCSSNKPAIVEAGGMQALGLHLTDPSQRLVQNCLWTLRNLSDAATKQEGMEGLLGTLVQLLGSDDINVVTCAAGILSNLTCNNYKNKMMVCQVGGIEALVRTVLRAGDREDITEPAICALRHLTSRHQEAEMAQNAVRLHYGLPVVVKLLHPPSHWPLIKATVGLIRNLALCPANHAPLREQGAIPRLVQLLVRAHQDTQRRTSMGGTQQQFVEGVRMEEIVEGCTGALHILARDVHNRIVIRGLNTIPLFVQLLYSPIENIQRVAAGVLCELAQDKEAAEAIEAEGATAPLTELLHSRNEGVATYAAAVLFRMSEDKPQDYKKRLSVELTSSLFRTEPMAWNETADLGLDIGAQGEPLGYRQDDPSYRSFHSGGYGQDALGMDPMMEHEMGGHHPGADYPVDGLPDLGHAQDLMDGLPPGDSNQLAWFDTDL

T2: B-cat-Halo (beta-catenin HaloTag fusion expressed in HEK293 cells) (UniProt P35222 1-781)
T2 sequence (looked up): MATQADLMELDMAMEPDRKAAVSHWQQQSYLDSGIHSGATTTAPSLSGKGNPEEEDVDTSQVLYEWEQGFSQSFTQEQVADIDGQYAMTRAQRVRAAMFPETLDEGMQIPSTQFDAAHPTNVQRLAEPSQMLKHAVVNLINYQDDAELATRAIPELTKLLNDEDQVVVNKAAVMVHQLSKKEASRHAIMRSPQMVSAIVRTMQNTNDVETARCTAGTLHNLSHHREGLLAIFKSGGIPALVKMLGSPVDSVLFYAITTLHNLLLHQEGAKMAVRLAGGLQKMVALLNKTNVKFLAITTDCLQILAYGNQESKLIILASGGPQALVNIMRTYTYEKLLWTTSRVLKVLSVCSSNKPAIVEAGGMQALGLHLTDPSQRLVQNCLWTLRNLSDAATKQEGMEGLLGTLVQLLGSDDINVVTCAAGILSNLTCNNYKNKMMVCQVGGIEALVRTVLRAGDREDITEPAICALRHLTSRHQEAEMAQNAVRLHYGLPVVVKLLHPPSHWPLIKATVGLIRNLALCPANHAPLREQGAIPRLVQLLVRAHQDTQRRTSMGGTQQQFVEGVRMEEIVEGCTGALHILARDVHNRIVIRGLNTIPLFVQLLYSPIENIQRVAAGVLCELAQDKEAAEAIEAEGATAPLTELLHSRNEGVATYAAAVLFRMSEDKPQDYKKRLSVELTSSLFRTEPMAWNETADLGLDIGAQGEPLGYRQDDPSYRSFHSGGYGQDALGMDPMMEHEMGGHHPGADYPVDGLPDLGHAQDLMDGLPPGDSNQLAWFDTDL

T3: B-cat-Halo (UniProt P35222 1-781)
T3 sequence (looked up): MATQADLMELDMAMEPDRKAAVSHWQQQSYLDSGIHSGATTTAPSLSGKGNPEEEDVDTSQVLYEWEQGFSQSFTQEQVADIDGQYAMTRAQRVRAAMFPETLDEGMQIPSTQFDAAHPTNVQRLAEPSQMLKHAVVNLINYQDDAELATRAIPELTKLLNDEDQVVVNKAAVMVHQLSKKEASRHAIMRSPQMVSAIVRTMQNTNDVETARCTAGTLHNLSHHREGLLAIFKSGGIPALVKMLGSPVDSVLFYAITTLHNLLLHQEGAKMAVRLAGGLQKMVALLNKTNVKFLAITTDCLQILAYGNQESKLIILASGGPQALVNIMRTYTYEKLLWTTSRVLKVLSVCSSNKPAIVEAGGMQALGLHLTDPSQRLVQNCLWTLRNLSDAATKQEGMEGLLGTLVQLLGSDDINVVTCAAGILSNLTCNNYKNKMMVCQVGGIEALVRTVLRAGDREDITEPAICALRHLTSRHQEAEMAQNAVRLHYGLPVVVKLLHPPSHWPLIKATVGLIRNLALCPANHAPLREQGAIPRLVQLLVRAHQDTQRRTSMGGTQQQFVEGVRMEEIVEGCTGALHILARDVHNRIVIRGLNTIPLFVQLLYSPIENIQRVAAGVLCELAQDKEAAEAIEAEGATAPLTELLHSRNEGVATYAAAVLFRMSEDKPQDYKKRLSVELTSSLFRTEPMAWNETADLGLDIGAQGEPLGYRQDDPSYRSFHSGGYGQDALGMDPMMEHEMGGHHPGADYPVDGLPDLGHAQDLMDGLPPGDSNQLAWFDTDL

B1: I-420 (peptide)
peptide: Ac-[αAllylPro]DA[B5(23)]DEAAFT[S8]F[Bta]H-NH2
modifications: staple 1-4, 4-11
notes: Stapled peptide composition
B2: I-423 (peptide)
peptide: Ac-[αAllylPro]DA[B5(23)]DEAAFT[S8]F[Bta]Q-NH2
modifications: staple 1-4, 4-11
notes: Stapled peptide composition
B3: I-433 (peptide)
peptide: Ac-[αAllylPro]DA[B5(24)]DEAAF[S(OMe)][S8]F[Bta]Q-NH2
modifications: staple 1-4, 4-11
notes: Stapled peptide composition
B4: I-438 (peptide)
peptide: Ac-[αAllylPro]DA[B5(26)]DEAAFN[S8][His(π-Me)][Bta]Q-NH2
modifications: staple 1-4, 4-11
notes: Stapled peptide composition
B5: I-440 (peptide)
peptide: XDAXDEAAFNXHXQ
modifications: not fully specified; N-terminal Ac, C-terminal NH2; non-natural PL3(1), B5(4), S8(11), 1meH(12), BztA(13); staples PL3-B5 and B5-S8 (olefin metathesis)
notes: Stapled peptide composition
B6: I-439 (peptide)
peptide: Ac-[αAllylPro]DA[B5(21)]DEAAFN[S8][His(τ-Me)][Bta]Q-NH2
modifications: staple 1-4, 4-11
notes: Stapled peptide composition
B7: I-1733 (peptide)
peptide: Ac-[αAllylPro]D[tBuAla][B5]D[GA]AAFN[PyrS2][3Thi][Bta]Q-NH2
modifications: staple 1-4, 4-11
B8: I-1732 (peptide)
peptide: Ac-[αAllylPro]D[tBuAla][B5(4)]D[GA]AAFN[PyrS2(4)][3Thi][Bta]Q-NH2
modifications: staple 1-4, 4-11; not fully specified; reading uncertain
B9: I-1747 (peptide)
peptide: Ac-[αAllylPro]D[tBuAla][B5(5)]D[TfeGA]AAFL[PyrS2″][3Thi][Bta]L-NH2
modifications: staple 1-4, 4-11
B10: I-1761 (peptide)
peptide: Ac-[αAllylPro]D[tBuAla][B5(5)]D[TfeGA][Lys(iPr)]AFL[PyrS2″][3Thi][Bta]F-NH2
modifications: staple 1-4, 4-11
B11: I-1764 (peptide)
peptide: Ac-[αAllylPro]D[tBuAla][B5(5)]D[TfeGA][Lys(iPr)]AFT[PyrS2″][3Thi][Bta]V-NH2
modifications: staple 1-4, 4-11
B12: I-1768 (peptide)
peptide: Ac-[αAllylPro]D[tBuAla][B5(5)]D[TfeGA][Lys(iPr)]AFT[PyrS2″][3Thi][Bta]F-NH2
modifications: staple 1-4, 4-11; also: -CH=CH- in each staple reduced to -CH2-CH2-
B13: I-1760 (peptide)
peptide: Ac-[αAllylPro]D[tBuAla][B5(5)]D[TfeGA][Lys(iPr)]AFT[PyrS2″][3Thi][Bta]L-NH2
modifications: staple 1-4, 4-11

Starred links: 1 amine or outer side, 2 acyl side, 3 side chain; linkers in the order of their positions; H or OH if unused. Positions of bridges follow the written chain, without caps; N, C: chain ends. Non-standard residues stand in square brackets, D forms with d. Primed or numbered codes have the meaning given here. B5(26) = 2-amino-2-(pent-4-en-1-yl)hept-6-enoic acid (bis-pentenylglycine), stitching residue carrying two staples, C=CCCCC(CCCC=C)(N[*:1])C(=O)[*:2]; PyrS2″ = (S)-3-amino-1-((pent-4-en-1-yloxy)carbonyl)pyrrolidine-3-carboxylic acid (stapling residue), C=CCCCOC(=O)N1CC[C@@](N[*:1])(C(=O)[*:2])C1; B5(23) = 2-amino-2-(pent-4-en-1-yl)hept-6-enoic acid (2,2-bis(4-pentenyl)glycine), stitching residue, C=CCCCC(CCCC=C)(N[*:1])C(=O)[*:2]; B5(24) = 2-amino-2-(pent-4-en-1-yl)hept-6-enoic acid, 2,2-bis(4-pentenyl)glycine (stitching residue), C=CCCCC(CCCC=C)(N[*:1])C(=O)[*:2]; B5(4) = 2,2-bis(4-pentenyl)glycine = 2-amino-2-(pent-4-en-1-yl)hept-6-enoic acid (stitching residue), C=CCCCC(CCCC=C)(N[*:1])C(=O)[*:2]; B5(5) = 2,2-bis(4-pentenyl)glycine, 2-amino-2-(pent-4-en-1-yl)hept-6-enoic acid (stitching residue), C=CCCCC(CCCC=C)(N[*:1])C(=O)[*:2]; B5(21) = 2-amino-2-(pent-4-en-1-yl)hept-6-enoic acid, bis(4-pentenyl)glycine (stitching residue), C=CCCCC(CCCC=C)(N[*:1])C(=O)[*:2]; TfeGA = (S)-2-amino-3-((carboxymethyl)(2,2,2-trifluoroethyl)amino)propanoic acid, O=C([C@H](CN(CC(=O)[*:3])CC(F)(F)F)N[*:1])[*:2]; PyrS2 = (S)-3-amino-1-((pent-4-en-1-yloxy)carbonyl)pyrrolidine-3-carboxylic acid, C=CCCCOC(=O)N1CC[C@@](N[*:1])(C(=O)[*:2])C1; GA = (S)-2-amino-3-((carboxymethyl)amino)propanoic acid, O=C([C@H](CNCC(=O)[*:3])N[*:1])[*:2]; B5 = 2-amino-2-(pent-4-en-1-yl)hept-6-enoic acid, C=CCCCC(CCCC=C)(N[*:1])C(=O)[*:2]; S(OMe) = O-methyl-L-serine, COC[C@H](N[*:1])C(=O)[*:2]; His(τ-Me) = Cn1cnc(C[C@H](N)C(=O)O)c1; Bta = N[C@@H](Cc1csc2ccccc12)C(=O)O; His(π-Me) = Cn1cncc1C[C@H](N)C(=O)O; Lys(iPr) = CC(C)NCCCC[C@H](N)C(=O)O; αAllylPro = C=CC[C@@]1(C(=O)O)CCCN1; tBuAla = CC(C)(C)C[C@H](N)C(=O)O; 3Thi = N[C@@H](Cc1ccsc1)C(=O)O; S8 = C=CCCCCCC[C@](C)(N)C(=O)O; PyrS2(4) = not defined here

The first assay has as its target T1, full-length beta-Catenin (Uniprot ID …). As to the kind of experiment: fluorescence polarization competition; peptide titrated against 10 nM full-length beta-catenin + 10 nM 5FAM-TCF4(10-53) probe. Here is the method:
The plate was incubated protected from light for 60 minutes at 20° C. prior to read. Reads were performed on a CLARIOstar plate reader (BMG Labtech) in duplicate, and data were fitted to a 1:1 binding model with hill slope using an in-house script. All provided concentrations are final concentrations.
Background: Fluorescence polarisation rises when a labelled molecule tumbles more slowly, as on binding a larger partner.
For orientation: IC50 means the midpoint of a concentration-inhibition curve. Take B1: the IC50 was 128 nM.

For B2, the IC50 stood at 105 nM.

For B3, the IC50 was determined as 136 nM.

Take B4: the concentration for half-maximal inhibition (IC50) worked out at 5000 nM.

Turning to B5, the IC50 is 5000 nM.

Consider B6, for which the IC50 is 5000 nM.

The next assay has as its target T2, B-cat-Halo (beta-catenin HaloTag fusion …). As to the kind of experiment: cell-based or functional assay.
Regarding B7, the “NanoBRET Abs IC50” value is more than 20 µM.

Turning to B8, the “NanoBRET Abs IC50” value was more than 20 µM.

Take B9: the “NanoBRET Abs IC50” value is more than 20 µM.

In the next assay the target is T3, B-cat-Halo. As to the kind of experiment: cell-based or functional assay.
With B10, the “NanoBRET Abs IC50” value was more than 20 µM.

For the molecule B11, the “NanoBRET Abs IC50” value is more than 20 µM.

Turning to B12, the “NanoBRET Abs IC50” value is more than 20 µM.

With B13, the “NanoBRET Abs IC50” value was more than 20 µM.
